Measured values published in patent CN115716874A (SHENZHEN ZHUORUN BIOTECHNOLOGY CO LTD, dated 2023).

Target: T1, AFP-L3与凝集素复合物 (Lens culinaris, UniProt P02870 31-210; P02870 218-269, limits assumed)
T1 construct: Non-covalent complex of recombinant AFP (AFP-L3 glycoform) with lentil lectin, mass ratio AFP-L3:lectin 1:5; immobilised on a CM5 chip for SPR; Native LCA consists of processed alpha and beta chains; also called AFP-L3与LCA复合物; AFP-L3-LCA复合物
T1 sequence 1: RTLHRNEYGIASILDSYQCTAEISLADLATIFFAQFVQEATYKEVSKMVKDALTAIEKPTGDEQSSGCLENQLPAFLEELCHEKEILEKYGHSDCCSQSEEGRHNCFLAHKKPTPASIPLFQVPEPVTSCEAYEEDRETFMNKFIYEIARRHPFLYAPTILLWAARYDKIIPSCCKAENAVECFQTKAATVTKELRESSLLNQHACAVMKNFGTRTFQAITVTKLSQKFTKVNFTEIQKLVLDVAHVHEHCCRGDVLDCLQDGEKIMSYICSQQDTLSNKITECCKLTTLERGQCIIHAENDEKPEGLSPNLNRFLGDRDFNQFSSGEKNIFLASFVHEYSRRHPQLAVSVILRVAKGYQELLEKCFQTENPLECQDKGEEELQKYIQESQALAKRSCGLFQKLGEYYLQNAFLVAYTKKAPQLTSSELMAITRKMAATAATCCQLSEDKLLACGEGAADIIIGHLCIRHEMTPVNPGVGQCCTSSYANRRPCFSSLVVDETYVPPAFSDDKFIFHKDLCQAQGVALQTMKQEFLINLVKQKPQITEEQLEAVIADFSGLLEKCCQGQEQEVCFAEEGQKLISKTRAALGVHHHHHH
T1 sequence 2: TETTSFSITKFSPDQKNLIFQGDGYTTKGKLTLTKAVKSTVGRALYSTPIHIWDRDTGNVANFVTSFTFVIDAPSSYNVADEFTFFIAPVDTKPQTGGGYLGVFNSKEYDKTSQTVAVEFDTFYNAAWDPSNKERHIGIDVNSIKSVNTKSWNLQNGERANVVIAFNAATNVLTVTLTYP
T1 sequence 3: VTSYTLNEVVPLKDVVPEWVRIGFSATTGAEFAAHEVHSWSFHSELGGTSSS
Assay: SPR, Biacore T200, complex immobilised on CM5 chip, antibody as analyte

- Kd: 2.66 nM
B1: Ab-03 (antibody, mouse IgG1, kappa, V domains shown)
VH: QVQLQQSGPEVVRPGVSVKISCKGSGYTFTDYAMQWVKQSHAKSLEWIGVISTYNGNTNYNQKFKGKATMTVDKSSSTAYMELARLTSEDSAIYYCARSLYYGSSPYAMDYWGQGTSVTVSS
VL: DIVMSQSPSSLAVSAGEKVTMSCKSSQSLLNSRTRKNYLAWYQQKPGQSPKLLIYWASTRESGVPDRFTGSGSGTDFTLTISSVQAEDLAVYYCKQSYNLFTFGSGTKLEIKR
notes: Mouse hybridoma antibody from ascites, Protein A purified; also called 针对AFP-L3与凝集素复合物的单克隆抗体; Ab-03抗体株
